# Laboratory results taken from the DeepSol protein solubility set.
# Experiment: soluble on expression in E. coli; label from the status in PepcDB or PDB records
row,Sequence,soluble on expression in E. coli
1,MKVIIDGEVRTLKAAWYEDGEVKLIDQRELPDKIKIFSAKNSDDIAYAIKNMVVRGAPAIGVTAAYGLAMASKNGEDMNKAKEKIRATRPTAYDLFKAIRYMEVNGYDMNAARRYAMEIEGRSKKIGELGNELIRNGAKILTHCNAGALAVLDWGTALSPMRIAHNEGKNIFVFVDETRPRLQGAKLTAWELAQEGIDHAIIADNAAGFYMRRKEIDLVIVGADRIASNGDFANKIGTYEKAVLAKVNGIPFYVAAPGSTFDFSIRSGDEIPIEERDENEVLEINGIRIGPNESHSKNPAFDVTPNEYVTGFITEYGIFKPNELNKLKDLMDKDLFMNIK,not soluble
2,MTHKGSCHCGRIAFEVDGEPGSAMACNCSICQRKGSLLWFVPREHLHLLTPDENASTYTFNKHVIRHRFCPVCGMHPYGEGTGADGKAMVAINIRCLEDIDLAAVPVTQFDGRSRLEHHHHHH,soluble
3,MGSDKIHHHHHHMNNKGKLAILFIDALPYFKSRNIGQILNLYRLIPGLGYSVNQHYELLYGKTPDDVGFFGEWSLGCSTKFDTIKFRFHKTIDSILWKLKLNLIRKGYRKIILRLEDMIPLGRRKYFLRKGTYAFRELAKEGFILYNTQFRGYIEELDRTLPRNEEKRMETMFNKMFNIAKNTDHPLLFTINIIDHIGHKYGPESPEYDYFLDLFAKKLLDLLIFLKENGFHVILFSDHGMSPYKAKVNLSDFEHYFGKFFGKYIVYFYDSLYFRAWIFDSFLYLEIEEFLNKLPGKILSSNDRKKFGVVHEEHGHVIFVLNEGFTFHPNYFGYSVMKGYHGYLPEFERQHGIAAFSRAFKIDNLFQGNPPKYLNSIDFSRIIKHILEANRNV,not soluble
4,MATLDKFLSIKENDEKTKKKESKKKSSKSNKTSESLVSHDHFELTPEFENQLWKVADKLRKKMEVHQYKYVVLGLIFLRALTCRFYERRKEIEEELSNPNSELYTEDPELRKMILEDEDFYLSEGVLYLPKETRWDYFVENVMSPNIGEIIDTAIEILEEKYPDRLKDVIPKIYAQSPLDNHDYSYLINKFSEISFGKEHRVKDVFGRIYEYFLGKFTEVEGKLGGKFYTPRSLTKLIVDVLDVKGGSIFDPACGSGGFFVSALEKLEREGIDINELSIYGQDSDPMAYRLTKMNLIIRGAEGDIRIDDSYHDDKFMDMTFDYVVANPPFNDSEWDANRIKPDDPRLRIGNKKVPVPPNGNANYMWILHFIYHTAPNGKAGFVMANGALSAGNVEGEIRKAIIENDLVYGIVACPPKLFYNVSLPVSLWFIRKEKPDYMKGKVLFINAKNLYKQISRRQNILTEEHIKKIVDKFRMFESGEDEDKINELGFAKVATIDEIAKNGYVLTPGRYVGVKIEDDGIPFEVKMKEYSEELKKLLDEEEKLRNKVKEILDALGF,soluble
5,MSSDNLVENIIAEVLGKVGDLKTPSAASQPGISQQEPAIPRKLCGLTEFVGTATGDSIGLVIANVDSALLDAMHLEKKYRSIGILGARTGAGPQIMAADEAVKATNTEVVAIELARDTKGGAGHGSLVLFGGQDVSDVKRAVEVALGELERTFGDIYANAAGHVELQYTARASYALEKAFGAPLGRACGVIVGAPAAIGVLMADTAIKSANVDVVAYNSPAKGTSFTNEVILIVSGDSGAVRQAVRSARDVGLTLLETMGGKAPSATTPYI,not soluble
6,MSLKIDIHPLTHDPTSAWKELSKSQRVIKINTKPPAVDVPSNKVRVVCMSDTHSLTHHIKFDIPDGDIFIHAGDFTRCGKLDEVVDFNEWLKKLPHKHKLVIAGNHELSFDHTFTHPFQNASACCKKTGSTLLDEIPTLGNSKESLAEAVKTENIRQYLSSCTYLQDECVELYGLKIYGTPWQPEFCKWAFNVKRGQACLEKWEQIPENVDILVTHTPPVGHGDLCCSGVRAGCVELLATVQQRVKPKYHVFGHVHEGYGITSDGRIIFVNASTCDINYLPNNQPIVFDVTLPKGRTKDEGHHHHHH,soluble
7,MILIFEEHRMQLSSEQCDFFFTNGYLVINNFFSESVCDLLKQRIETLLENNQAEIPKTIFSTQTNEHAKKQYFLDSGDKIHYFFEPGAFDEAGDWLRPFNQSINKIGHALHELDPVFRQYSRDDRIKKIAHQLGLKTLGLVQSMYIFKQPGIGAEVLCHQDSTYIFGEDSDALGFWFAIEDATLENGCLEVIPSPCTTPLKQRMFRRENEIYFENFDSSPWPEENSVPLPVKKGALIILHGRVPHKSQANFSNQSRHAYTLHLVDISLPYPEKNWLQWPNGIPCLLEHHHHHH,soluble
8,MATKVYIVYYSMYGHVEKLAQEIRKGAASVDGVEAILWQVPETLQEDVLSKMSAPPKSDAPIITPNELAEADGFIFGFPTRFGMMAAQFKAFLDATGGLWRTQQLAGKPAGIFYSTGSQGGGQETTALTAITQLVHHGMIFVPIGYTFGAGMFEMENVKGGSPYGAGTFAGDGSRQPTELELGQAFHQGKYIAAISKKLKGPAAA,soluble
9,MVAAAVVGTAAVGTKAATDPRSVGTQVDDGTLEVRVNSALSKDEQIKKEARINVTAYQGKVLLVGQSPNAELSARAKQIAMGVDGANEVYNEIRQGQPIGLGEASNDTWITTKVRSQLLTSDLVKSSNVKVTTENGEVFLMGLVTEREAKAAADIASRVSGVKRVTTAFTFIKLEHHHHHH,not soluble
10,MAQMYFYYSAMNAGKSTTLLQSAFNYQERGMNPLIFTAAIDDRFGVGKVSSRIGLEAEAHLFHADTDLLHVIATLHEAEPRHCILMDECQFLSKEQVYQLTEVVDKLDIPVLCYGLRTDFLGELFEGSKYLLSWADKLIELKTICHCGRKANMVIRTDEHGNAISEGDQVAIGGNDKYVSVCRQHYKEALGR,not soluble
11,MNRHSAGQSTPVRVATLDQLKPGVPTAFDVDGDEVMVVRDGDSVYAISNLCSHAEAYLDMGVFHAESLEIECPLHVGRFDVRTGAPTALPCVLPVRAYDVVVDGTEILVAPKEADHHHHHH,soluble
12,MSRKKFMESVGATCSNWNWSWSFVNHEERFVVFGHWDVHKDGLIFDESWKGPGRKQSLEHISLIQNNGYRLKTFPMQYDQTETGTAKIKSFDWILEEKHLAGVDGLWYALNYSESVDITSIEEVVHPETYIEGATKEISVNAYERNPDARAKCILHYGCKCYVCKFDFQEVYGDIGKGFIHVHHEVSLAEIKKEYSVDPIKDLKPLCPNCHGIIHRTHPPISVDSLINLLRSRNLEHHHHHH,soluble
13,MGSDKIHHHHHHMSDSFDVLWLNASPILKRFDKPLLDYLSGYMRIAQWEYQQTKDEASSIDQAVELLHNFLEWRDRPVHLAGHGMSGAIALTFARRFPQKVRSLTLLSVAAQPANNWQAHYYFQRQLFSISRELVLASTVRSLFGNQPPHTTKKLVAALDKDLEQSPSQHSLFKLVYLPKGGVSMPMMVCGSKSDPVVNPTVLHDWLNWLKPEDKLWECPQGYHFFHYFYPQQVGEEILSFWKRHPSHLLEASALSFSTSTN,not soluble
14,MAHHHHHHMILKEFCAEGYERIPEAIAAGAQRVELCARLDVGGVTPSADTIQNTVEYCHSRNAMVMVIIRCREGNFYYSDEEFQVMLKSVILARRLGADGVVFGAIDTLGNVDPRISILLSAAKGMSLTFHMAFDEIPTEKQFQAIDALTAYGFHRILTHGGSASTNIEENLDWLKELVLYAKNRISIMPGGGVTNLNAEKIARDLGVTEVHGTRVVRFV,not soluble
15,PSARDILQQGLDRLGSPEDLASRIDSTLLSPRATEEDVRNLVREASDYGFRCAVLTPVYTVKISGLAEKLGVKLCSVIGFPLGQAPLEVKLVEAQTVLEAGATELDVVPHLSLGPEAVYREVSGIVKLAKSYGAVVKVILEAPLWDDKTLSLLVDSSRRAGADIVKTSTGVYTKGGDPVTVFRLASLAKPLGMGVKASGGIRSGIDAVLAVGAGADIIGTSSAVKVLESFKSLV,soluble
16,MPGAVDFKERISRQRPHDRETYGHAGNTDLQDIVYQLESDRGRIVNSAAVRRLQQKTQVFPLERNAAVRSRLTHSLEVQQTGRFIVRTLFRQLGPRAAEVGLDGLEGALESLVEMACLMHDVGNPPFGHFGEYAINDWFERNLDALFERRIPPGQGDGLLQQRMLTDLKHFEGNAQAIRLVVKLLRLNLTYTQTAGLLKYVRPAYEPKPDKAAANHYLNKKPGFYLSEEAFVDELRRVLGMRPGTRHPVAYIMEAADDISYCLADIEDSVEKGILDIRQLADLLVKKFAVHHSPDAPIPGDADNMSFQRMVDYSLEKAEREPINKVSEFFIRLRVKMIHPLVQHAAQQFIDNFEAVHAGTLGRALMEDGSLPHAIVQTFKDVAMEWVFCHPEVETLELQGYRIIQGLLDFYAPLLRLPAEEFQALAEGRQAAAPHPQLLVRRLPSQQIKAYLEAMKGVAEDPLQRQWEFYHRCRMLQDFVSGMTDQHAQDEYRALSAL,not soluble
17,MGSDKIHHHHHHMEVLYRKYRPKTFSEVVNQDHVKKAIIGAIQKNSVAHGYIFAGPRGTGKTTLARILAKSLNCENRKGVEPCNSCRACREIDEGTFMDVIELDAASNRGIDEIRRIRDAVGYRPMEGKYKVYIIDEVHMLTKEAFNALLKTLEEPPSHVVFVLATTNLEKVPPTIISRCQVFEFRNIPDELIEKRLQEVAEAEGIEIDREALSFIAKRASGGLRDALTMLEQVWKFSEGKIDLETVHRALGLIPIQVVRDYVNAIFSGDVKRVFTVLDDVYYSGKDYEVLIQEAVEDLVEDLERERGVYQVSANDIVQVSRQLLNLLREIKFAEEKRLVCKVGSAYIATRFSTTNVQENDVREKNDNSNVQQKEEKKETVKAKEEKQEDSEFEKRFKELMEELKEKGDLSIFVALSLSEVQFDGEKVIISFDSSKAMHYELMKKKLPELENIFSRKLGKKVEVELRLMGKEETIEKVSQKILRLFEQEG,not soluble
18,MGSDKIHHHHHHMALIEGFRVRNYRALRDITLGRLSAEQQGDPLTPFTVVIGKNGVGKSTLFDAFGFVADCLSKDVESACDDKQRGGFERMRSLGTEESIRFDIYYREAKGERPITYELAINLDSSGRPFVESEVLKQRRKGQKHGRPYPFLRLHHGVGKVWAGEEAVETSSGEEDRAQEDVELTDLRQLGIATLGTLKEHPRIKRFRDFLKGWHLSYFHPDSARSIPSAGAQRHLDVHGENIGNVVQYMEREHKERFKTILDRIAAKIPGVHSIRTTVTQDKRVLLQFNDGAFNDPFYAGQMSDGTLKIFAYLLLMEDPEPPPFICIEEPENGLYHRLLDSLASELRSHATGKKNAPQIFVTTHQPYFVDALSTKEVWILEKGKNGFSTICRASDIDLVRNLVEEGLPLGGLWYGDYLDTK,not soluble
19,MNAMERENTVKSVRRALQIIEIVSTKKDGLGVTEIAKQMDINKSSVYRILTTLAQYGYIEQHPETERYKLGYKFLELSSKLLDSIDLRQEAKPYLRELEKETNEVIHLVVYDQGEVIYIEKLEGTETLRMHSKVGKRAPMHCTAVGKAILAHLPPAVAAEIIDRKGLPKHTDWTITDREAFFRELETVRQNGYALDLEENEYGIRCVAVPIFDYTGGVVAAISVSGPTIRMTDDRITSLTVRMRQIGKELSARLGYRGAHSVQL,soluble
20,MIFKVGDTVVYPHHGAALIEAIETRTIKGEQKEYLVLKVAQGDLTVRVPADNAEYVGVRDVVGQEGLDKVFQVLRAPHTEEPTNWSRRYKANLEKLASGDVNKVAEVVRDLWRREQDRGLSAGEKRMLAKARQILVGELALAEGTDSDKAETILDEVLAAAS,not soluble
21,MAHHHHHHMVSNVADVRQINLTDSSNFLLMACDGLWDVVENEEATQFVRDFLSYTPDVGSSPEATKRALNNCCQKLAEFAVDRGSTDNVSVMLLFFHDVADVVAGFDKPVGAVVSPPASQVLSPRLTGPSRGIPFGSSMLDGGLHTSSGTSGTRRPSFGSVSSLHGRGRSIW,not soluble
